Legend:
[1] = biological target: human insulin receptor isoform A (human); test: radioligand binding; competition with human 125I-insulin on IR-A in membranes of human IM-9 lymphocytes; non-linear regression, one-site fit, depletion of free ligand taken into account; Kd of 125I-insulin set to 0.3 nM
[2] = biological target: human insulin-like growth factor type I receptor (human); test: radioligand binding; competition with human 125I-IGF-I on human IGF-1R in membranes of mouse embryonic fibroblasts (IGF-1R knock-out, transfected with human IGF-1R); non-linear regression, one-site fit; Kd of 125I-IGF-I set to 0.2 nM
[3] = biological target: human insulin receptor isoform B (human); test: radioligand binding; human IR-B in membranes of mouse embryonic fibroblasts (IGF-I receptor knock-out, solely expressing human IR-B); non-linear regression, one-site fit, depletion of free ligand taken into account

| Substance | Kd [1] [nM] | Kd [2] [nM] | Kd [3] [nM] |
| --- | --- | --- | --- |
| [R34_GS]IGF-II (ligand) | 15.4 | 4.13 |  |
| [R34_GS,S39_PQ]IGF-II (ligand) | 23.4 | 5.68 |  |
| [S39_PQ]IGF-II (ligand) | 38 | 5 |  |
| [N29,R34_GS,S39_PQ]IGF-II (ligand) | 19.9 | 3.19 |  |
| [N29,S39_PQ]IGF-II (ligand) | 16.8 | 1.33 |  |

The next substances have a lower Kd [1] than those just listed; values first:

| Kd [1] [nM] | Kd [2] [nM] | Kd [3] [nM] | Substance |
| --- | --- | --- | --- |
| 10.3 | 4.57 | 108 | [N29]IGF-II (ligand) |
| 3.03 | 2.29 | 43.7 | IGF-II (recombinant, with an additional glycine at the N terminus) (ligand) |

— article PMC5076530
